Results on 77 sequences are retold here after the supplement of paper PMC7877785.

This data set is described as follows: self-splicing fitness, log relative to wild type (ln ratio); higher = more splicing; Tetrahymena group I intron in knt gene, E. coli kanamycin selection, DiMSum; sequences stand for … in CUCUCU…GGAGGGAAAAGUUAUCAGGCAUGCACCUGGUAGCUAGUCUUUAAACCAAUAGAUUGCAUCGGUUUAAAAGGCAAGACCGUCAAAUUGCGGGAAAGGGGUCAACAGCCGUUCAGUACCAAGUCUCAGGGGAAACUUUGAGAUGGCCUUGCAAAGGGUAUGGUAAUAAGCUGACGGACAUGGUCCUAACCACGCAGCCAAGUCCUAAGUCAACAGAUCUUCUGUUGAUAUGGAUGCAGUUCACAGACUAAAUGUCGGUCGGGGAAGAUGUAUUCUUCUCAUAAGAUAUAGUCGGACCUCUCCUUAAUGGGAGCUAGCGGAUGAAGUGAUGCAACACUGGAGCCGCUGGGAACUAAUUUGUAUGCGAAAGUAUAUUGAUUAGUUUUGGAGUACUCGUGGUCG
The method in brief:
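Fitness was computed with DiMSum as the error-weighted combination of replicate fold changes, kanamycin versus none, each normalised to wild type. The library randomised all eight intron nucleotides of the P1ex region, with the intron placed in the knt kanamycin-resistance gene on pET-22b(+) in E. coli BL21(DE3). Six replicate transformations were grown overnight at 37°C or 30°C on LB agar with or without 25 μg/mL kanamycin, plus 100 μg/mL carbenicillin, 50 μM IPTG and 0.2% rhamnose. Pooled colonies were amplicon-sequenced on an Illumina HiSeq 2500.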

± gives the uncertainty stated by the source.

In the case of UAACAGCAAUAUUACGGUCG, the “self-splicing fitness (ln)” value reads like this: (30 °C) -0.363 ± 0.04; (37 °C) -0.0859 ± 0.056. On the same counts, the results for AUUAAGCAAUAUUACGGGGC are -3 ± 0.21 and -1.98 ± 0.26. On the same counts, the results for ACUGAGCAAUAUUACGUACA are -1.96 ± 0.24 and -0.524 ± 0.17. In the case of UUCAAGCAAUAUUACGUUGG, the “self-splicing fitness (ln)” value is -2.28 ± 0.17 (30 °C) and -1.66 ± 0.24 (37 °C). For UGAGAGCAAUAUUACGACGC, the “self-splicing fitness (ln)” value (30 °C) was -1.61 ± 0.35. Regarding CUUCAGCAAUAUUACGAACU, the “self-splicing fitness (ln)” value is -3.9 ± 0.37 (30 °C) and -1.75 ± 0.27 (37 °C). On the same counts, the results for UUGUAGCAAUAUUACGCCUA are -0.297 ± 0.12 and 0.0606 ± 0.13. GGGCAGCAAUAUUACGAAGC: the “self-splicing fitness (ln)” value runs as follows: (30 °C) -1.64 ± 0.077; (37 °C) -0.939 ± 0.09.

With UGCUAGCAAUAUUACGCCAA, the “self-splicing fitness (ln)” value (37 °C) was determined as 0.0147 ± 0.24. On to AAGCAGCAAUAUUACGAAAC, for which the “self-splicing fitness (ln)” value (30 °C) was -3.7 ± 0.4 and the “self-splicing fitness (ln)” value (37 °C) is -1.8 ± 0.38.

With GCUGAGCAAUAUUACGGCGC, the “self-splicing fitness (ln)” value by setting is: (30 °C) -0.35 ± 0.13; (37 °C) -0.0749 ± 0.15. On the same counts, the results for ACAAAGCAAUAUUACGAUGC are -1.61 ± 0.11 and -1.9 ± 0.15. As to GCGUAGCAAUAUUACGGGUU, the “self-splicing fitness (ln)” value (30 °C) is -2.12 ± 0.12 and the “self-splicing fitness (ln)” value (37 °C) was -1.32 ± 0.15. Turning to CGAGAGCAAUAUUACGCGCU, where the note is “30 °C”, the “self-splicing fitness (ln)” value was -2.04 ± 0.38. As for CUGUAGCAAUAUUACGUCGG, the “self-splicing fitness (ln)” value reads like this: (30 °C) -3.47 ± 0.2; (37 °C) -1.87 ± 0.18. On the same counts, the results for ACGUAGCAAUAUUACGCAGA are -3.08 ± 0.27 and -2.48 ± 0.18. On the same counts, the results for ACAUAGCAAUAUUACGUAAU are -2.87 ± 0.11 and -1.93 ± 0.14. For CUUAAGCAAUAUUACGACGA, the “self-splicing fitness (ln)” value reads like this: (30 °C) -3.58 ± 0.25; (37 °C) -2.61 ± 0.23. CGUGAGCAAUAUUACGGACA: the “self-splicing fitness (ln)” value runs as follows: (30 °C) -1.29 ± 0.16; (37 °C) -0.944 ± 0.19. On the same counts, the results for CUUAAGCAAUAUUACGCCAA are -2.46 ± 0.42 and -2.43 ± 0.33. The corresponding values for UACAAGCAAUAUUACGCCAA are -1.74 ± 0.18 and -1.07 ± 0.15.

As for CACAAGCAAUAUUACGUGUG, the “self-splicing fitness (ln)” value by setting is: (30 °C) -3.65 ± 0.12; (37 °C) -2.69 ± 0.12. The corresponding values for CAACAGCAAUAUUACGUUAA are -2.36 ± 0.11 and -2.16 ± 0.12. The corresponding values for GUGCAGCAAUAUUACGGUCU are -0.887 ± 0.081 and 0.217 ± 0.093. Regarding GGACAGCAAUAUUACGAGAU, the “self-splicing fitness (ln)” value is -3.03 ± 0.14 (30 °C) and -1.45 ± 0.13 (37 °C). On the same counts, the results for UCUAAGCAAUAUUACGACAU are -3.444 ± 0.025 and -2.23 ± 0.037. On the same counts, the results for UAAGAGCAAUAUUACGUUUU are -3.31 ± 0.15 and -3.27 ± 0.2. The corresponding values for GUAAAGCAAUAUUACGGGUU are -1.72 ± 0.13 and -1.86 ± 0.18.

With GUGCAGCAAUAUUACGUAGC, the “self-splicing fitness (ln)” value by setting is: (30 °C) -1.44 ± 0.17; (37 °C) -0.976 ± 0.16. The corresponding values for GGCGAGCAAUAUUACGGCAC are -1.36 ± 0.13 and -0.093 ± 0.14. On to GCGGAGCAAUAUUACGACCA, for which the “self-splicing fitness (ln)” value (37 °C) is -1.68 ± 0.41. CACGAGCAAUAUUACGAGGA: the “self-splicing fitness (ln)” value was -2.27 ± 0.15 (30 °C) and -2.68 ± 0.16 (37 °C). On the same counts, the results for UAGAAGCAAUAUUACGUUCU are -1.61 ± 0.11 and -1.08 ± 0.11. On the same counts, the results for GCGGAGCAAUAUUACGACUU are -0.726 ± 0.15 and -1.48 ± 0.29. The corresponding values for UUAGAGCAAUAUUACGCUCA are -1.75 ± 0.18 and -0.916 ± 0.26. As for ACCGAGCAAUAUUACGCAUU, the “self-splicing fitness (ln)” value (30 °C) is -3.91 ± 0.17 and the “self-splicing fitness (ln)” value (37 °C) is -1.78 ± 0.12. On the same counts, the results for UACUAGCAAUAUUACGAUUG are -1.88 ± 0.16 and -0.352 ± 0.21.

In the case of UCGAAGCAAUAUUACGUACA, the “self-splicing fitness (ln)” value is, setting by setting: (30 °C) -0.691 ± 0.13; (37 °C) 0.0696 ± 0.11. On the same counts, the results for CCUCAGCAAUAUUACGAAUA are -1.54 ± 0.2 and -2.78 ± 0.4. On the same counts, the results for AAAAAGCAAUAUUACGACAU are 0.00477 ± 0.011 and 0.11 ± 0.032.

Regarding CGCUAGCAAUAUUACGCUGU, the “self-splicing fitness (ln)” value (37 °C) is -2.3 ± 0.19.

GCAAAGCAAUAUUACGGGCC: the “self-splicing fitness (ln)” value runs as follows: (30 °C) -2.74 ± 0.13; (37 °C) -2.03 ± 0.21. On the same counts, the results for GUAAAGCAAUAUUACGAUCA are -0.396 ± 0.11 and -0.197 ± 0.11.

As for CUACAGCAAUAUUACGUUGA, the “self-splicing fitness (ln)” value runs as follows: (30 °C) -3.13 ± 0.17; (37 °C) -3.35 ± 0.21. For the sequence CGGUAGCAAUAUUACGUUUC, the “self-splicing fitness (ln)” value (30 °C) is -2.48 ± 0.32. In the case of UCCCAGCAAUAUUACGUUGU, the “self-splicing fitness (ln)” value (30 °C) is -4.06 ± 0.15 and the “self-splicing fitness (ln)” value (37 °C) was -1.97 ± 0.11. The corresponding values for CAUUAGCAAUAUUACGAAGA are -3.8 ± 0.43 and -0.417 ± 0.23. Regarding GCGUAGCAAUAUUACGAUCC, the “self-splicing fitness (ln)” value runs as follows: (30 °C) -2.41 ± 0.13; (37 °C) -0.852 ± 0.15. On the same counts, the results for AAGUAGCAAUAUUACGUGUA are -1.98 ± 0.13 and -1.41 ± 0.14.

For the sequence ACUUAGCAAUAUUACGGGCU, the “self-splicing fitness (ln)” value runs as follows: (30 °C) -1.74 ± 0.084; (37 °C) -0.866 ± 0.11. The corresponding values for AGCCAGCAAUAUUACGAGAC are -3.57 ± 0.18 and -2.61 ± 0.16. The corresponding values for GUCAAGCAAUAUUACGGAAG are -3.05 ± 0.15 and -1.68 ± 0.17. On the same counts, the results for UAAUAGCAAUAUUACGCACC are -2.04 ± 0.21 and -0.918 ± 0.24. Regarding UAAUAGCAAUAUUACGAUGG, the “self-splicing fitness (ln)” value (30 °C) is -3.31 ± 0.16 and the “self-splicing fitness (ln)” value (37 °C) was -1.18 ± 0.13. On the same counts, the results for CUGGAGCAAUAUUACGUGUU are -3.3 ± 0.16 and -3.31 ± 0.21.

As for CAUCAGCAAUAUUACGAGGC, the “self-splicing fitness (ln)” value reads like this: (30 °C) -3.77 ± 0.2; (37 °C) -2.64 ± 0.21. On the same counts, the results for GGUUAGCAAUAUUACGACUG are -0.729 ± 0.1 and -0.796 ± 0.12. On the same counts, the results for AGCGAGCAAUAUUACGUGAA are -3.44 ± 0.19 and -1.23 ± 0.2. The corresponding values for GUUUAGCAAUAUUACGACGC are 0.0175 ± 0.18 and -0.0772 ± 0.24. For AUUAAGCAAUAUUACGUGGU, the “self-splicing fitness (ln)” value (30 °C) is -2.42 ± 0.16 and the “self-splicing fitness (ln)” value (37 °C) is -2.29 ± 0.19. As to UUAUAGCAAUAUUACGGAGG, the “self-splicing fitness (ln)” value reads like this: (30 °C) -1.68 ± 0.31; (37 °C) -2.37 ± 0.32. Regarding AACGAGCAAUAUUACGCGAU, the “self-splicing fitness (ln)” value was -3.04 ± 0.26 (30 °C) and -1.99 ± 0.3 (37 °C). Turning to UUGUAGCAAUAUUACGUGCA, the “self-splicing fitness (ln)” value by setting is: (30 °C) -2.4 ± 0.15; (37 °C) -1.14 ± 0.18. With GCCGAGCAAUAUUACGGGAA, the “self-splicing fitness (ln)” value (30 °C) was -1.01 ± 0.073 and the “self-splicing fitness (ln)” value (37 °C) was -0.813 ± 0.088. Consider AAACAGCAAUAUUACGCAAC, for which the “self-splicing fitness (ln)” value (30 °C) was -3.6 ± 0.29 and the “self-splicing fitness (ln)” value (37 °C) was -1.93 ± 0.17. ACUUAGCAAUAUUACGUGCU: the “self-splicing fitness (ln)” value was -1.9 ± 0.094 (30 °C) and -1.06 ± 0.1 (37 °C). Consider GUCAAGCAAUAUUACGUCUC, for which the “self-splicing fitness (ln)” value reads like this: (30 °C) -0.66 ± 0.076; (37 °C) -0.461 ± 0.097. The corresponding values for AACAAGCAAUAUUACGUUUU are -3.22 ± 0.08 and -1.03 ± 0.067. The corresponding values for UGUCAGCAAUAUUACGUGCC are -0.825 ± 0.12 and -0.182 ± 0.14. On the same counts, the results for CUUCAGCAAUAUUACGAUGA are -4.12 ± 0.42 and -1.71 ± 0.25. With GUAAAGCAAUAUUACGUGAC, the “self-splicing fitness (ln)” value (30 °C) was -2.09 ± 0.076 and the “self-splicing fitness (ln)” value (37 °C) is -0.885 ± 0.078. With ACGUAGCAAUAUUACGACUG, the “self-splicing fitness (ln)” value is, setting by setting: (30 °C) -1.78 ± 0.13; (37 °C) -0.836 ± 0.15. Turning to AUAAAGCAAUAUUACGCUUU, the “self-splicing fitness (ln)” value is -4.03 ± 0.24 (30 °C) and -1.59 ± 0.23 (37 °C).

With CGACAGCAAUAUUACGGCUA, the “self-splicing fitness (ln)” value by setting is: (30 °C) -2.5 ± 0.2; (37 °C) -1.39 ± 0.14. As for AGCGAGCAAUAUUACGGGUU, the “self-splicing fitness (ln)” value reads like this: (30 °C) -2.83 ± 0.2; (37 °C) -1.09 ± 0.15. The corresponding values for AGCGAGCAAUAUUACGCGCA are -0.891 ± 0.23 and -0.546 ± 0.2. The corresponding values for CAAGAGCAAUAUUACGAAAG are -1.52 ± 0.12 and -1.64 ± 0.16.
